Earlier results, collected in PMC4664810.
pKd: −log10 of the molar value. Where two headings read alike, the source gives them in different places.

Legend:
[1] = biological target: CD20 (Homo sapiens) (UniProt P11836)
[2] = biological target: CD20 (Homo sapiens) (UniProt P11836); remark: listed apart in the source

Sequence of CD20 (Homo sapiens) (P11836 whole entry): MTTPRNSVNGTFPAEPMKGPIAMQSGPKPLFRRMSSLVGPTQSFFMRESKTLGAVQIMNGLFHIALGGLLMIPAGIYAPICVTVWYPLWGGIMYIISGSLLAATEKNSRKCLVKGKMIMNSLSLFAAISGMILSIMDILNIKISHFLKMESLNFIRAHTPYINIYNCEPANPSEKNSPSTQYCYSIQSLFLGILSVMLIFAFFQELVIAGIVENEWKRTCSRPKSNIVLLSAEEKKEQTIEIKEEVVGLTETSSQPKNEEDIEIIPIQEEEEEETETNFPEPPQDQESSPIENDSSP

Substance	pKd [1]	pKd [2]
rituximab	8.26	–
ofatumumab	–	8.32
